From doi:10.1101/528042 (bioRxiv, 2019)

Molecular target: the molecule itself
Assay: SEC

B1: S-OPA1 (short S1 isoform of splice form 1 human OPA1), wild type (natural protein, UniProt O60313 196-960, looked up)
chain: TDRGSESDKHFRKVSDKEKIDQLQEELLHTQLKYQRILERLEKENKELRKLVLQKDDKGIHHRKLKKSLIDMYSEVLDVLSDYDASYNTQDHLPRVVVVGDQSAGKTSVLEMIAQARIFPRGSGEMMTRSPVKVTLSEGPHHVALFKDSSREFDLTKEEDLAALRHEIELRMRKNVKEGCTVSPETISLNVKGPGLQRMVLVDLPGVINTVTSGMAPDTKETIFSISKAYMQNPNAIILCIQDGSVDAERSIVTDLVSQMDPHGRRTIFVLTKVDLAEKNVASPSRIQQIIEGKLFPMKALGYFAVVTGKGNSSESIEAIREYEEEFFQNSKLLKTSMLKAHQVTTRNLSLAVSDCFWKMVRESVEQQADSFKATRFNLETEWKNNYPRLRELDRNELFEKAKNEILDEVISLSQVTPKHWEEILQQSLWERVSTHVIENIYLPAAQTMNSGTFNTTVDIKLKQWTDKQLPNKAVEVAWETLQEEFSRFMTEPKGKEHDDIFDKLKEAVKEESIKRHKWNDFAEDSLRVIQHNALEDRSISDKQQWDAAIYFMEEALQARLKDTENAIENMVGPDWKKRWLYWKNRTQEQCVHNETKNELEKMLKCNEEHPAYLASDEITTVRKNLESRGVEVDPSLIKDTWHQVYRRHFLKTALNHCNLCRRGFYYYQRHFVDSELECNDVVLFWRIQRMLAITANTLRQQLTNTEVRRLEKNVKEVLEDFAEDGEKKIKLLTGKRVQLAEDLKKVREIQEKLDAFIEALHQEK
  stoichiometry N: 2
